These results are taken from the supplement of paper PMC9112550, “Optimization of the antimicrobial peptide Bac7 by deep mutational scanning” (BMC Biology, 2022).

The subject of this data set is Escherichia coli TOP10. The experiment in a line: shrunken log2 fold change of peptide-encoding DNA abundance (4.5 h post-induction vs induction); higher = less antimicrobial activity (less host growth inhibition). Conditions: time post-induction: 4.5 h; library: site-saturation at positions 5, 18, 19, 20.
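Note: peptides expressed intracellularly from a pBAD plasmid library in pooled LB shake-flask culture, induced with 0.3% L-arabinose, DNA abundance read by NGS, three biological replicates, DESeq2 with apeglm shrinkage.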

For the sequence RRIRRRPPRLPRPRPRPWNLPRP, the “shrunken log2 fold change” value was -0.269.
With RRIRIRPPRLPRPRPRPYINPRP, the “shrunken log2 fold change” value is -1.08.
Regarding RRIRARPPRLPRPRPRPPNVPRP, the “shrunken log2 fold change” value was determined as 0.109.
On to RRIRDRPPRLPRPRPRPFERPRP, for which the “shrunken log2 fold change” value was -0.0141.
RRIRVRPPRLPRPRPRPCTRPRP: the “shrunken log2 fold change” value is -0.214.
In the case of RRIRSRPPRLPRPRPRPWWPPRP, the “shrunken log2 fold change” value amounted to 0.0626.
With RRIRDRPPRLPRPRPRPHCIPRP, the “shrunken log2 fold change” value was -0.00742.
RRIRWRPPRLPRPRPRPFKKPRP: the “shrunken log2 fold change” value was 0.149.
Take RRIRKRPPRLPRPRPRPLIVPRP: the “shrunken log2 fold change” value is -0.223.
Take RRIRSRPPRLPRPRPRPKYYPRP: the “shrunken log2 fold change” value is -0.918.
As to RRIRFRPPRLPRPRPRPWCRPRP, the “shrunken log2 fold change” value is -0.172.
Then RRIRWRPPRLPRPRPRPLTCPRP, with 0.0568.
For RRIRDRPPRLPRPRPRPWLKPRP the value was -0.00783; for RRIRVRPPRLPRPRPRPIQKPRP, -0.017; for RRIRERPPRLPRPRPRPSLAPRP, -0.0635.
For the sequence RRIRGRPPRLPRPRPRPILCPRP, the “shrunken log2 fold change” value turned out to be 0.174.
As for RRIRDRPPRLPRPRPRPNDQPRP, the “shrunken log2 fold change” value is -0.154.
For the sequence RRIRTRPPRLPRPRPRPFKWPRP, the “shrunken log2 fold change” value is -0.121.
On to RRIRWRPPRLPRPRPRPWNDPRP, for which the “shrunken log2 fold change” value came out at 0.0222.
With RRIRIRPPRLPRPRPRPVTYPRP, the “shrunken log2 fold change” value was -0.275.
For RRIRKRPPRLPRPRPRPLMPPRP the value was 0.232.
With RRIRLRPPRLPRPRPRPYSYPRP, the “shrunken log2 fold change” value is -0.977.
Then RRIRNRPPRLPRPRPRPCDFPRP, with -0.529; and RRIRARPPRLPRPRPRPKHSPRP, with 0.0875.
For RRIRLRPPRLPRPRPRPDFQPRP, the “shrunken log2 fold change” value came out at 0.157.
In the case of RRIRARPPRLPRPRPRPFLGPRP, the “shrunken log2 fold change” value was found to be 0.0605.
Consider RRIRNRPPRLPRPRPRPLTRPRP, for which the “shrunken log2 fold change” value was found to be 0.0454.
For RRIRTRPPRLPRPRPRPQSDPRP the value was -0.0398.
In the case of RRIRMRPPRLPRPRPRPWSFPRP, the “shrunken log2 fold change” value was -0.33.
Then RRIRNRPPRLPRPRPRPMAVPRP, with -0.0402.
In the case of RRIRWRPPRLPRPRPRPVWRPRP, the “shrunken log2 fold change” value was 0.488.
In the case of RRIRNRPPRLPRPRPRPDVPPRP, the “shrunken log2 fold change” value is -0.199.
With RRIRPRPPRLPRPRPRPFYHPRP, the “shrunken log2 fold change” value was -0.547.
As for RRIRMRPPRLPRPRPRPNCWPRP, the “shrunken log2 fold change” value turned out to be 0.755.
As to RRIRWRPPRLPRPRPRPLHLPRP, the “shrunken log2 fold change” value is -0.234.
On to RRIRRRPPRLPRPRPRPISRPRP, for which the “shrunken log2 fold change” value is -0.0551.
With RRIRFRPPRLPRPRPRPGHIPRP, the “shrunken log2 fold change” value is -0.00306.
Regarding RRIRARPPRLPRPRPRPINMPRP, the “shrunken log2 fold change” value was -0.346.
Consider RRIRQRPPRLPRPRPRPTLIPRP, for which the “shrunken log2 fold change” value was -0.131.
In the case of RRIRSRPPRLPRPRPRPNYDPRP, the “shrunken log2 fold change” value was -0.247.
On to RRIRWRPPRLPRPRPRPICDPRP, for which the “shrunken log2 fold change” value worked out at 0.0755.
RRIRKRPPRLPRPRPRPDPQPRP: the “shrunken log2 fold change” value stood at 0.729.
Regarding RRIRRRPPRLPRPRPRPIDCPRP, the “shrunken log2 fold change” value turned out to be 0.00203.
For RRIRFRPPRLPRPRPRPQWHPRP the value was -0.461; for RRIRKRPPRLPRPRPRPHFCPRP, -0.167.
In the case of RRIRFRPPRLPRPRPRPSGCPRP, the “shrunken log2 fold change” value is -0.0116.
Take RRIRQRPPRLPRPRPRPANSPRP: the “shrunken log2 fold change” value was -0.0568.
Consider RRIRKRPPRLPRPRPRPTWNPRP, for which the “shrunken log2 fold change” value worked out at 0.197.
For RRIRARPPRLPRPRPRPDFSPRP, the “shrunken log2 fold change” value was determined as 0.000254.
As for RRIRHRPPRLPRPRPRPRNMPRP, the “shrunken log2 fold change” value was -0.65.
As to RRIRDRPPRLPRPRPRPRYFPRP, the “shrunken log2 fold change” value was determined as 0.242.
In the case of RRIRKRPPRLPRPRPRPESWPRP, the “shrunken log2 fold change” value was 1.02.
Regarding RRIRHRPPRLPRPRPRPWSIPRP, the “shrunken log2 fold change” value worked out at 0.0612.
With RRIRRRPPRLPRPRPRPIIKPRP, the “shrunken log2 fold change” value was -0.265.
On to RRIRTRPPRLPRPRPRPYVMPRP, for which the “shrunken log2 fold change” value is -1.53.
Take RRIRMRPPRLPRPRPRPMYQPRP: the “shrunken log2 fold change” value was -0.0563.
Then RRIRVRPPRLPRPRPRPIYDPRP, with -0.576.
With RRIRGRPPRLPRPRPRPSMEPRP, the “shrunken log2 fold change” value is 0.467.
RRIRERPPRLPRPRPRPGAMPRP: the “shrunken log2 fold change” value came to 0.316.
With RRIRGRPPRLPRPRPRPLYQPRP, the “shrunken log2 fold change” value was determined as 0.0508.
Then RRIRFRPPRLPRPRPRPIAMPRP, with 0.091.
Take RRIRARPPRLPRPRPRPYVIPRP: the “shrunken log2 fold change” value is -0.434.
On to RRIRGRPPRLPRPRPRPREEPRP, for which the “shrunken log2 fold change” value was 1.57.
RRIRCRPPRLPRPRPRPLCIPRP: the “shrunken log2 fold change” value is -0.353.
On to RRIRARPPRLPRPRPRPPMTPRP, for which the “shrunken log2 fold change” value turned out to be 0.88.
For RRIRVRPPRLPRPRPRPLIYPRP the value was -0.632.
As for RRIRRRPPRLPRPRPRPMQCPRP, the “shrunken log2 fold change” value turned out to be 0.00703.
Turning to RRIRFRPPRLPRPRPRPPVTPRP, the “shrunken log2 fold change” value is -0.132.
Then RRIRWRPPRLPRPRPRPTMCPRP, with -0.00672; and RRIRARPPRLPRPRPRPQMSPRP, with 0.0835.
As to RRIRRRPPRLPRPRPRPWFEPRP, the “shrunken log2 fold change” value came out at 0.0607.
As to RRIRQRPPRLPRPRPRPKKRPRP, the “shrunken log2 fold change” value was found to be 0.107.
For the sequence RRIRARPPRLPRPRPRPKMIPRP, the “shrunken log2 fold change” value was -0.0208.
On to RRIRDRPPRLPRPRPRPLWVPRP, for which the “shrunken log2 fold change” value is -0.0158.
Turning to RRIRGRPPRLPRPRPRPYAMPRP, the “shrunken log2 fold change” value was determined as 0.451.
For RRIRWRPPRLPRPRPRPPFTPRP, the “shrunken log2 fold change” value was 0.21.
On to RRIRKRPPRLPRPRPRPGLCPRP, for which the “shrunken log2 fold change” value is 0.168.
For RRIRNRPPRLPRPRPRPPWDPRP the value was 0.144.
As for RRIRYRPPRLPRPRPRPYKNPRP, the “shrunken log2 fold change” value was -1.42.
Turning to RRIRSRPPRLPRPRPRPNLQPRP, the “shrunken log2 fold change” value was -0.141.
For RRIRVRPPRLPRPRPRPQCDPRP the value was -0.0528; for RRIRVRPPRLPRPRPRPGHGPRP, 0.00601; for RRIRARPPRLPRPRPRPSKIPRP, -0.265.
Then RRIRGRPPRLPRPRPRPKANPRP, with 0.836; and RRIRTRPPRLPRPRPRPVSDPRP, with -0.114.
RRIRCRPPRLPRPRPRPPFKPRP: the “shrunken log2 fold change” value turned out to be 0.313.
On to RRIRERPPRLPRPRPRPCKFPRP, for which the “shrunken log2 fold change” value is -0.214.
RRIRRRPPRLPRPRPRPRLPPRP: the “shrunken log2 fold change” value was 0.663.
Take RRIRSRPPRLPRPRPRPMFMPRP: the “shrunken log2 fold change” value was -0.223.
For RRIRWRPPRLPRPRPRPLMGPRP, the “shrunken log2 fold change” value is -0.276.
Take RRIRWRPPRLPRPRPRPTILPRP: the “shrunken log2 fold change” value stood at 0.0395.
Regarding RRIRKRPPRLPRPRPRPRDTPRP, the “shrunken log2 fold change” value came to 0.258.
For RRIRTRPPRLPRPRPRPCLDPRP, the “shrunken log2 fold change” value was -0.405.
For the sequence RRIRPRPPRLPRPRPRPQNRPRP, the “shrunken log2 fold change” value is -0.598.
Regarding RRIRVRPPRLPRPRPRPQHEPRP, the “shrunken log2 fold change” value was -0.245.
Then RRIRARPPRLPRPRPRPVMCPRP, with 0.0832; and RRIRMRPPRLPRPRPRPYDPPRP, with -0.328; and RRIRQRPPRLPRPRPRPECPPRP, with 0.184.
Then RRIRWRPPRLPRPRPRPQQWPRP, with 0.333; and RRIRTRPPRLPRPRPRPHKQPRP, with -0.148.
With RRIRRRPPRLPRPRPRPMILPRP, the “shrunken log2 fold change” value amounted to 0.359.
For RRIRCRPPRLPRPRPRPRERPRP the value was 0.875; for RRIRLRPPRLPRPRPRPIMQPRP, -0.271.
In the case of RRIRRRPPRLPRPRPRPGTNPRP, the “shrunken log2 fold change” value turned out to be 0.0926.
Regarding RRIRTRPPRLPRPRPRPLEWPRP, the “shrunken log2 fold change” value stood at 0.178.
As to RRIRFRPPRLPRPRPRPGTDPRP, the “shrunken log2 fold change” value is -0.11.
As for RRIRDRPPRLPRPRPRPQGTPRP, the “shrunken log2 fold change” value is 0.165.
With RRIRSRPPRLPRPRPRPRANPRP, the “shrunken log2 fold change” value worked out at 0.174.
For RRIRGRPPRLPRPRPRPQNQPRP the value was 0.0596; for RRIRIRPPRLPRPRPRPMMQPRP, -0.0907.
Then RRIRARPPRLPRPRPRPEGPPRP, with 0.577; and RRIRSRPPRLPRPRPRPICPPRP, with -0.055.
Regarding RRIRLRPPRLPRPRPRPWIEPRP, the “shrunken log2 fold change” value was -0.00922.
As to RRIRARPPRLPRPRPRPQFIPRP, the “shrunken log2 fold change” value was -0.382.
Take RRIRIRPPRLPRPRPRPAPGPRP: the “shrunken log2 fold change” value amounted to 0.371.
Then RRIRLRPPRLPRPRPRPEQAPRP, with 0.0554; and RRIRGRPPRLPRPRPRPRWWPRP, with 0.667.
For RRIRFRPPRLPRPRPRPNNIPRP the value was -1.04.
With RRIRARPPRLPRPRPRPAQQPRP, the “shrunken log2 fold change” value came out at 0.156.
For RRIRLRPPRLPRPRPRPWWCPRP, the “shrunken log2 fold change” value is -0.0878.
Then RRIRPRPPRLPRPRPRPTRIPRP, with 0.105; and RRIRQRPPRLPRPRPRPFGEPRP, with 0.287.
Take RRIRERPPRLPRPRPRPITMPRP: the “shrunken log2 fold change” value is -0.408.
On to RRIRGRPPRLPRPRPRPDYNPRP, for which the “shrunken log2 fold change” value was -0.12.
As for RRIRWRPPRLPRPRPRPKWEPRP, the “shrunken log2 fold change” value was 0.0855.
